The target of one assay is affibody ZpA963. Briefly: SPR; BIAcore T100; about 100 RU of biotinylated affibody captured on a streptavidin (SA) chip, the partner flowed over in two-fold dilutions; HBS-P+; 1:1 binding model or steady-state affinity model; which partner was captured is not told. A general note: Surface plasmon resonance follows binding to a sensor surface in real time, without labels.
For a further assay, the target named is affibody Z_(SPA-1). Described as above.
For assay [1], the target named is affibody ZpA963, second protein (Z-B) of the yeast-displayed single chain. Briefly: on-yeast cleavage-capture assay. The conditions noted are these: 60 min after 3C protease cleavage; parent: est. 63; read off a plot.
Assay [2] has as its target Z domain of staphylococcal protein A, displayed on yeast (first protein, Z-A). Briefly: flow cytometry on cells; on-yeast cleavage-capture assay: Aga2-cMyc-ZA-linker (3C site)-ZB-HA on S. cerevisiae EBY100, stained with Alexa Fluor 488 anti-cMyc and Alexa Fluor 647 anti-HA antibody, cut with 3C protease (0.4 mg/mL in MACS buffer, 4°C); HA-tag MFI as % of the MFI before cleavage. In general terms: A flow cytometer gives signals particle by particle.

Assay [3] has the same target. In words: flow cytometry on cells; on-yeast cleavage-capture assay, test of fluorescently labelled anti-HA antibodies of different valency (Fab, IgG mAb, Fab+streptavidin complex); staining after 3C cleavage as % of uncleaved cells.
Assay [4] has the same target. Briefly: on-yeast cleavage-capture assay. Particulars: 60 min after 3C protease cleavage; parent: est. 63; read off a plot.

A word on the Kd: it is the concentration at which binding is half-saturated. A high value points to weaker binding. As to “Z domain of staphylococcal protein A (domain or fragment)”, the equilibrium dissociation constant (Kd) in the assay with affibody ZpA963 came to 10 nM; in the assay with affibody Z_(SPA-1), 2920 nM.

Take “Z domain of staphylococcal protein A, displayed on yeast (first protein, Z-A) L17I”: in assay [1], the response was found to be 66 % max.

As for “affibody ZpA963, second protein (Z-B) of the yeast-displayed single chain (designed binder)”, the % of HA-tag fluorescence kept after an hour of 3C protease cleavage in assay [2] is 68.7%. In assay [3], this substance showed a % of the staining of uncleaved cells kept after 3C cleavage (anti-HA Fab+SA complex) of 69.9% and a % of the staining of uncleaved cells kept after 3C cleavage (anti-HA IgG mAb) of 45.8%.

With “affibody ZpA963, second protein (Z-B) of the yeast-displayed single chain I31V”, the response in assay [4] amounted to 30 % max.

For the substance “affibody ZpA963, second protein (Z-B) of the yeast-displayed single chain L35I”, the response in assay [4] was 26 % max.

For the origin of these results see PMC10403280.
